Assay results: patent publication US6670452B2, “Non-naturally occurring lipoprotein particle” (University of Strathclyde, priority 1996, dated 2003)
“Also recorded” adds a separate entry of the source. No end group written: not given here. lipid anchor = not defined here

Tests used:
[1] = Particle size by photon correlation spectroscopy; type: physicochemical; details: for Peptide concentration producing increases in diameter: FIG. 8; for Effect of increasing peptide concentration on particle diameter: FIG. 8, Number Mean Diameter
Procedure: Particle size analysis was carried out using photon correlation spectroscopy (Zetasizer® Model 4, Malvern Instruments, Malvern, (UK). Before analysis samples were diluted with Tris-HCl buffer (0.01M) and filtered (0.2 μm). Sizing measurements were carried out at a fixed angle of 90° to the incident beam. The correlator was operated in parallel mode to allow for more accurate size distribution measurements. The cumulants method of analysis was used to calculate the mean sample size weighted according to the intensity of scattered light (z-average diameter). Since this diameter is weighted strongly on favour of large particles, Rayleigh theory was used to convert intensity distributions into number distributions [^12]. The viscosity and refractive index values of pure water were used in the size calculations. All results quoted are the mean and standard deviation of at least 10 measurements.

U937 cells = test: U937 cell growth (proliferation) assay; type: cell-based; details: DFCS 5% v/v, peptide 0.03 mol/mol cholesterol oleate, 72 hours, range of cholesterol concentrations
Procedure: U937 stock cultures were grown at 37° C. in RPMI 1640 media supplemented glutamine (10 mM), gentamicin (50 μg/ml), fungizone (0.5 μg/ml) and 10% (v/v) foetal calf serum (FCS). Cells were maintained in a humidified 5% CO2, atmosphere between 1-8×10^5 cells/ml and sub-cultured twice weekly.
All growth assays were conducted over 72 hours in 24 well plates unless otherwise indicated. One day before each growth experiment, cells were centrifuged at 1500 rpm for 5 minutes and resuspended in RPM: medium containing 5% (v/v) delipidated foetal calf serum (DFCS) to initiate cholesterol starvation and up regulate LDL receptors. Cells were collected by centrifugation and seeded at 1×10^5/well. Appropriate amounts of cholesterol (either LDL, microemulsion or nLDL) were then added after filtration (0.2 μm) and the well volume made up to 1 ml with RPMI containing 5% (v/v) DFCS. After 72 hours an aliquot of each well was diluted with PBS and the number of cells present determined in triplicate by Coulter Counter. Different concentrations were repeated four or eight times depending on the experiment. Three wells per experiment were checked at random before commencement of incubation to ensure a uniform cell density was achieved. […] In all cases, the mean starting cell densities of control resells were between 0.95 and 1.05×10^5 cells/ml.

[2] = Zeta potential measurement; type: physicochemical; details: for Zeta potential increase at low peptide concentrations: below 0.2 moles/mole CO, diameter unchanged; for Changes of mean number diameter and zeta potential in altered surface lipid formulations (FIG. 10): microemulsion formulations with PC, SM, UC, TO, CO; for Zeta potential reached with increasing peptide concentration: plateau / constant value, FIG. 8, pH 8.0 Tris, 25° C.
Procedure: Samples were diluted 1 in 5 with 0.01M Tris buffer (pH 8.0) and zeta potential measured at 25° C. using the Zetasizer® 4 (Malvern Instruments). The applied voltage was 150V in each case and duty cycling was used to limit the cell current to 20 mA. All results quoted are the mean and standard deviation of at least 10 measurements.

B16 cells = test: 14C-nLDL cell binding assay at 4° C.; details: peptide 0.03 mol/mol cholesterol
Procedure: The required quantity of 14C-cholesteryl oleate (0.5 μCi-/mmol CO, supplied dissolved in toluene) was mixed if required with ten times its volume of DMSO prior to addition to stirred nLDL heated at 55° C. in a water bath. After incubation for 5 hours the mixture was passed down a Sephadex G-25M gel exclusion chromatography column (bed volume 10 ml) eluted with PBS. Fractions (1 ml) were collected their absorbance (300 nm) and 14C-cholesteryl oleate activity measured. Labelled preparations were filter sterilised (0.2 μm) and stored at 4° C. under N2 before use.
B16 cells were maintained in RPM: 1640 medium supplemented with 10% v/v FCS incubated at 37° C. in a 5% CO2 in air atmosphere. Confluent cultures were trypsinised, harvested and re-seeded at a dilution of 1 in 20 in fresh medium.
B16 cells were harvested in the log growth phase, washed by centrifugation and re-seeded into 24 well plates 1×10^5 cells/ml in media containing 10 v/v DFCS. After overnight incubation the cells were cooled to 4° C. for 1 hour, the media aspirated and replaced with ice cold media containing 10% v/v DFCS, supplemented with 14C-nLDL at a cholesterol concentration of 0.08 mmol/l. Four replicate wells were used for each concentration. Cells were then incubated at 4° C. for 4 hours with occasional rocking, the media aspirated and cells washed three times with ice cold PBS/BSA buffer (2 mg/ml BSA in PBS) followed by two ten minute incubations with ice cold PBS/BSA. Three final washes with ice cold PBS were then conducted. The 14C-cholesteryl oleate was extracted with hexane/isocropanol for 30 minutes at room temperature, aspirated and then mixed with 3 ml of scintillation fluid prior to counting. Cellular protein left in the well after extraction was assayed using Peterson's modification of the Lowry method^14. Sodium deoxycholate (1.5 mg/ml) was added to solubilise the protein, which was then precipitated by the addition of trichloroacetic acid (72% w/v), pelleted by centrifugation (5,000 rpm 10 minutes), the supernatant discarded and the pellet solubilised in Lowry reagent at room temperature for 20 minutes. Folin Ciocalteu's reagent was added, the solutions mixed and the colour allowed to develop for 30 minutes prior to absorbance measurements at 690 nm using a plate reader. A calibration curve was clotted from BSA standards ranging from 20 to 200 μg/ml.

Substance | Peptide concentration producing increases in diameter [1] [moles /mole CO] | Effect of increasing peptide concentration on particle diameter [1] | Growth of U937 cells induced by different nLDL preparations (FIG. 4) (U937 cells) | Difference in zeta potential between the lipid formulations ([2]; FIG. 10) | Zeta potential increase at low peptide concentrations [2] | Changes of mean number diameter and zeta potential in altered surface lipid formulations (FIG. 10) [2] | Zeta potential reached with increasing peptide concentration [2] | Total binding curve to B16 cells (FIG. 11) (B16 cells) | Effect of peptide on zeta potential ([2]; increasing peptide concentrations, FIG. 8)
Peptide A: eleven amino acids Apo B binding site peptide with both C and N terminal lipid anchors (FIG. 7) ({lipid anchor}-LRLTRKRGLKL; not fully specified (C-terminus); reading uncertain; also: C-terminal lipid anchor) | 0.5 | Below 0.5 moles/mole Co Peptide A has no effect on size | least effective | significant difference in zeta potential between the lipid formulations | roughly equal | reversal of zeta potential with little change in diameter | around +17 mV | – | –
Peptide B: eleven amino acid Apo B binding site peptide without the C-terminal cholesterol anchor (FIG. 7) ({lipid anchor}-GTTRLTRKRGLKL; not fully specified; reading uncertain) | – | size also remains constant; also recorded: no effect at any concentration | greatest increase in proliferation | – | roughly equal | reversal of zeta potential with little change in diameter | ~+15 mV | saturable increase in total binding | –
Peptide C: twenty two amino acid peptide containing the Apo B binding region, with both lipid anchors (FIG. 7) ({lipid anchor}-YKLQGTTRLTRKRGLKLATALS; not fully specified (C-terminus); reading uncertain; also: C-terminal lipid anchor) | 0.2 | diameter almost doubles | greatest increase in proliferation | – | double the effect | large alterations in both parameters | – | saturable increase in total binding | reversal of zeta potential
Peptide D: twenty two amino acid peptide with the cholesterol anchor removed (FIG. 7) (YKLEGTTRLTRKRGLKLATALS; also: lipid anchor, cholesterol anchor removed) | – | – | greatest increase in proliferation | – | – | – | – | saturable increase in total binding | –
Peptide E: random, non Apo B binding region sequence based on the amino acids of the previous peptides (FIG. 7) (TGKRYRLKTLRTLKKTSLLEAA; ()..() Synthesised peptide analogue of the Apo B 100 binding site) | – | – | least effective | – | – | – | – | saturable increase in total binding | –
